Changes are numbered by the printed parent chain.
Assays:
Assay in all cases: BLI
Settings in all cases: both partners purified
[1] = molecular target: T1, FMDV A22/IRQ/24/64 virus-like particle, VP2 93C stabilised (FMDV serotype A, A22/IRQ/24/64, stabilised)
T1 construct: copies: 60 + 60 + 60 + 60

[2] = molecular target: T2, FMDV O1/Manisa/TUR/69 virus-like particle, VP2 93C stabilised (Foot-and-mouth disease virus …, UniProt Q6PMW3, stabilised)
T2 construct: copies: 60 + 60 + 60 + 60

[3] = molecular target: T1, FMDV A22/IRQ/24/64 virus-like particle, …; remark: listed apart in the source
[4] = molecular target: T2, FMDV O1/Manisa/TUR/69 virus-like …; remark: listed apart in the source

B1: Ab17, recombinant cattle IgG1/lambda antibody (antibody, V domains shown)
VH: QVQLRESGPSSLKPSQTLSLTCAVSGFSLSTYAVGWVRQAPGKALEWVGDITSSGDTFYNPALKSRFSITKDNSKNQVSLSVGSVTPEDTATFYCTRLTCGDDCSTAWHNFDAWGQGLLVTVSS
VL: SYELTQPTSVSVALGQTAKITCSGDLLDVQYTQWYQQKPGQGPVRVIYKDSERPSGISDRFSGSSSGKTATLIISGAQTEDEADYYCQSTDSSQYGIFGRGTTLTVL
notes: copies: 2 + 2
[1]
  Kd: 0.246 nM
  koff: 0.000164 s⁻¹
  kon: 685000 M⁻¹ s⁻¹
[2]
  Kd: 0.021 nM
  koff: 7.96e-06 s⁻¹
  kon: 303000 M⁻¹ s⁻¹

B2: Ab49, recombinant cattle IgG1/lambda antibody (antibody, V domains shown)
VH: QVQLRESGPSLVKPSQTLSLTCTVSGFSLTNYAVGWVRQAPGKAIQSLSIISTTGDTYYNPALKSRLSITKDNSKSQVSLSVSSVAPEDTATYYCVKFCGNADSAGHGWGCDYGDNENWGQGLLVTVSS
VL: B1 VL with V29E, I73T, T90F, D91Y, Q94T, Y95D, G96P, I97V, R100S
notes: copies: 2 + 2
[1]
  Kd: 0.114 nM
  koff: 3.61e-05 s⁻¹
  kon: 389000 M⁻¹ s⁻¹
[2]
  Kd: 0.156 nM
  koff: 4.9e-05 s⁻¹
  kon: 257000 M⁻¹ s⁻¹

B3: Fab17, recombinant cattle Fab of Ab17 (Fab, V domains shown)
VH: B1 VH
VL: B1 VL
[3]
  Kd: 19.6 nM
  koff: 0.0298 s⁻¹
  kon: 1.52e+06 M⁻¹ s⁻¹
[4]
  Kd: 5.93 nM
  koff: 0.0117 s⁻¹
  kon: 1.19e+06 M⁻¹ s⁻¹

B4: Fab49, recombinant cattle Fab of Ab49 (Fab, V domains shown)
VH: B2 VH
VL: B1 VL with V29E, I73T, T90F, D91Y, Q94T, Y95D, G96P, I97V, R100S
[3]
  Kd: 4.44 nM
  koff: 0.00349 s⁻¹
  kon: 749000 M⁻¹ s⁻¹
[4]
  Kd: 6.37 nM
  koff: 0.0029 s⁻¹
  kon: 553000 M⁻¹ s⁻¹

B5: Ab34, recombinant cattle IgG1/lambda antibody (antibody, V domains shown)
VH: QVQLRESGPSLVKPSQTLSLTCTVSGFSLTDVHVGWVRQTPGKALEWVGVICNRGAIGYNPALESRLSITEDNSKSQVSLSLSSVTTADTATYYCASSCRTEGDVGGDCDSDHFFCAWGQGLLVTVSS
VL: SYELTQPTSVSVALGQTAKITCSGDLLDRQYAQWYQQKPGQGPVRVIYKDSERPSGISDRFSGSSSGKTATLTVSGAQTEDEADYYCHSADSSHYPVFGSGSTLTVL
notes: copies: 2 + 2
[1]
  Kd: 0.0093 nM
[2]
  Kd: 0.00904 nM

B6: Fab34, recombinant cattle Fab of Ab34 (Fab, V domains shown)
VH: B5 VH
VL: B5 VL
[3]
  Kd: 9.9 nM
[4]
  Kd: 12.3 nM
